Assay [1] concerns the target T1, human Glucagon-Like Peptide-1 receptor (human, UniProt P43220 24-463). In words: cell-based or functional assay.
Target sequence in this assay (P43220 24-463): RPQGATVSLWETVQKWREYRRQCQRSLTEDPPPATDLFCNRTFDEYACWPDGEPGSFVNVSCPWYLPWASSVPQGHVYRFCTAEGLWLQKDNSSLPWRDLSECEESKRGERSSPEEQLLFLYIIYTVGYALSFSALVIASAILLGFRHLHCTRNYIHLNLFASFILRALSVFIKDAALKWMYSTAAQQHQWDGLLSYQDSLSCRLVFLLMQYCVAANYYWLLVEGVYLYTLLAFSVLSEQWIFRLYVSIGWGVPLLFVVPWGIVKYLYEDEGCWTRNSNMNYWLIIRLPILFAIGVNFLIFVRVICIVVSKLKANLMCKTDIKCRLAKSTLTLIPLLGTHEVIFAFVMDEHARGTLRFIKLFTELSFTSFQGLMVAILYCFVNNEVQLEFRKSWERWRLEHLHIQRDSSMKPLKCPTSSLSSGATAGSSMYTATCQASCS
Assay [2] deals with T2, recombinant human glucagon receptor (human, UniProt P47871 26-477). In words: cell-based or functional assay.
Assay [3] has as its target T3, human glucose-dependent insulinotropic polypeptide receptor (human) (UniProt P48546).
T3 sequence (looked up): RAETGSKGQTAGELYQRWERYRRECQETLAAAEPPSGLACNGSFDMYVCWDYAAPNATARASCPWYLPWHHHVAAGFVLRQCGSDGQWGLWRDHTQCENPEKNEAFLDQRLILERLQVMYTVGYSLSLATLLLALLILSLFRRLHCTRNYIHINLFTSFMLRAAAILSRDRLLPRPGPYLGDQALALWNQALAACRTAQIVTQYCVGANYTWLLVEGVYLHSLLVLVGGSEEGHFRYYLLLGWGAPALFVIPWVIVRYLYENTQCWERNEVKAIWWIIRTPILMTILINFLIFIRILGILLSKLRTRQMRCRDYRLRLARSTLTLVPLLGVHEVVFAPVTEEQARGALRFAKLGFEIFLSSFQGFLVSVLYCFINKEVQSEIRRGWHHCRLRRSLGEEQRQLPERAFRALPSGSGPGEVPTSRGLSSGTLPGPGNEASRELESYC
In words: cell-based or functional assay.

Assay [4] deals with T1, human Glucagon-Like Peptide-1 receptor. Put plainly: cell-based or functional assay. The source holds these as a separate data set.
The target in assay [5] is T4, human glucose-dependent insulinotropic polypeptide receptor (human, UniProt P48546 22-466).
T4 sequence (looked up): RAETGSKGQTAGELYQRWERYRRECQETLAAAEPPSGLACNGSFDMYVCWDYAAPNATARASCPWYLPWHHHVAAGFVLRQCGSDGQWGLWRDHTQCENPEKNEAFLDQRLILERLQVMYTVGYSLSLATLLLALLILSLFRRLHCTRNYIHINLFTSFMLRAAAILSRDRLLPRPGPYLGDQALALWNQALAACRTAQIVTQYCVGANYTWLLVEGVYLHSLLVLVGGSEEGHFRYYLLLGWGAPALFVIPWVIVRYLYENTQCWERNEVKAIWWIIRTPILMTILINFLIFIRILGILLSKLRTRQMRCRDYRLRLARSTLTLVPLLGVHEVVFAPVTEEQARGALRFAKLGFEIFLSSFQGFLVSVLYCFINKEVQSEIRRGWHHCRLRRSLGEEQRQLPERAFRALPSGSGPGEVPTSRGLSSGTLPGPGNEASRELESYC
In words: cell-based or functional assay.

Assay [6] concerns the target T2, recombinant human glucagon receptor. Put plainly: cell-based or functional assay. This is another data set of the same source.
Assay [7] deals with T1, human Glucagon-Like Peptide-1 receptor. Put plainly: cell-based or functional assay. This is another data set of the same source.
Assay [8] has as its target T4, human glucose-dependent insulinotropic …. In words: cell-based or functional assay. The source holds these as a separate data set.
Assay [9] addresses T2, recombinant human glucagon receptor. In words: cell-based or functional assay. This is another data set of the same source.
The target of assay [10] is T1, human Glucagon-Like Peptide-1 receptor. In words: cell-based or functional assay. This is another data set of the same source.
Assay [11] has as its target T4, human glucose-dependent insulinotropic …. In words: cell-based or functional assay. The source holds these as a separate data set.
Assay [12] addresses T2, recombinant human glucagon receptor. In words: cell-based or functional assay. This is another data set of the same source.
Assay [13] shares this target. In words: I-125-Gcg competition SPA, membranes of 293HEK cells expressing hGcg-R. Here is the method:
(§1) The specific activity is 2200 Ci/mmol. KD determination is performed by homologous competition or saturation binding analysis.
(§2) The receptor binding assay is carried out using a Scintillation Proximity Assay (SPA) format with wheat germ agglutinin (WGA) beads (Perkin Elmer). The binding buffer contains 25 mM 4-(2-hydroxyethyl)-1-piperazineethanesulfonic acid (HEPES), pH 7.4, 2.5 mM CaCl₂, 1 mM MgCl₂, 0.1% (w/v) bacitracin (Affymetrix), 0.003% (w/v) Polyoxyethylenesorbitan monolaurate (TWEEN®-20) and Roche Complete™ Protease Inhibitors without EDTA.

Assay [14] deals with T5, mouse glucagon receptor (mouse, UniProt Q61606 27-485).
T5 construct: whole, on cells; Used as membranes of a clonal 293HEK line; also called mGcg-R; mGcgR
In words: I-125-Gcg competition SPA, membranes of 293HEK cells expressing mGcg-R. Here is the method:
as §1, §2

Assay [15] concerns the target T6, rat glucagon receptor (rat, UniProt P30082 27-485).
T6 construct: whole, on cells; Used as membranes of transiently transfected 293HEK cells; also called rGcg-R; rat Gcg-R
Put plainly: I-125-Gcg competition SPA, membranes of 293HEK cells expressing rGcg-R. Here is the method: as §1, §2

Like-named read-outs stand apart in the source and are kept apart here. Where only a bound is given, the exact number is not on record here.

T2 sequence (P47871 26-477): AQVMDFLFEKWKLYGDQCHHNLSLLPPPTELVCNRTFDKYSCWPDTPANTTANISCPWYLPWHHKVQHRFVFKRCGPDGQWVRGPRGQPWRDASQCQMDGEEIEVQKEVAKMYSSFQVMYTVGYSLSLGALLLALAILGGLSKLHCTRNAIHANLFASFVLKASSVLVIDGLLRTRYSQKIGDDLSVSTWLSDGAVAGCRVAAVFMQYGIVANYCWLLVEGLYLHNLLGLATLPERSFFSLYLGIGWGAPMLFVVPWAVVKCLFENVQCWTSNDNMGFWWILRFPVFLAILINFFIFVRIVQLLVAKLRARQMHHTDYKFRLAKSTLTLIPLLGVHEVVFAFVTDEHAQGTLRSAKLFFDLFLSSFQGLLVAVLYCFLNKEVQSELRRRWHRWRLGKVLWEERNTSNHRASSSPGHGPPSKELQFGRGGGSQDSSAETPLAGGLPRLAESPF
T6 sequence (P30082 27-485): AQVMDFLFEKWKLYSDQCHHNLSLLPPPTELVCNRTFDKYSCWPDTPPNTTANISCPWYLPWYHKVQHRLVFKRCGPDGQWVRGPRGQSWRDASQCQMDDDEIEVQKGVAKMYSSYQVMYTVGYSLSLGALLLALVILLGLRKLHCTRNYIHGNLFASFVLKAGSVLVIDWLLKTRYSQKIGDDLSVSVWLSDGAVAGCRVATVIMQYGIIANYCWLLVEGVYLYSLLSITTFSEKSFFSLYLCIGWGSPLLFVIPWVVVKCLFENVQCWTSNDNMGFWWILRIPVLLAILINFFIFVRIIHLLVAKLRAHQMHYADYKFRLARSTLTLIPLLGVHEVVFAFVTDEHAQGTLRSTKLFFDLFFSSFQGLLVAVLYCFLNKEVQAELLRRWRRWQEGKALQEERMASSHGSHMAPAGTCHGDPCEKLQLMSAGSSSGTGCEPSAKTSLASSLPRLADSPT
T5 sequence (Q61606 27-485): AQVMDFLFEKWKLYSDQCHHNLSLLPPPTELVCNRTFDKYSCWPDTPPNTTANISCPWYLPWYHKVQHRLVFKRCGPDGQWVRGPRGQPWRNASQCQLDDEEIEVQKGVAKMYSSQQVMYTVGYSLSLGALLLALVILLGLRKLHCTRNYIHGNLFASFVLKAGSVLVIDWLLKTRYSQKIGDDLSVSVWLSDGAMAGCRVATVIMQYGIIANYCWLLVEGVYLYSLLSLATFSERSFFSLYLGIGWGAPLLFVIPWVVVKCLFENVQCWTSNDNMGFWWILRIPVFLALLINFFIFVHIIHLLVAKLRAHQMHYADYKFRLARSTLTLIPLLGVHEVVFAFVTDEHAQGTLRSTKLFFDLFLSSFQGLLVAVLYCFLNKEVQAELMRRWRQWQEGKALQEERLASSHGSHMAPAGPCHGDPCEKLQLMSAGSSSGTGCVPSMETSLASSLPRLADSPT

In assay [1], dulaglutide (Fc fusion) displayed an EC50, cAMP, GLP-1 Receptor Assay; sample C6.5-4 C.-4 wk of 0.37 nM; an EC50, cAMP, GLP-1 Receptor Assay; sample C6.5-40 C.-4 wk of 0.31 nM; an EC50, cAMP, GLP-1 Receptor Assay; sample C6.5MT-4 C.-4 wk of 0.4 nM; an EC50, cAMP, GLP-1 Receptor Assay; sample C6.5MT-40 C.-4 wk of 0.29 nM. In addition, in assay [2], the EC50, cAMP, Gcg Receptor Assay; sample C6.5-4 C.-4 wk came out at 51.9 nM; the EC50, cAMP, Gcg Receptor Assay; sample C6.5-40 C.-4 wk was over 100 nM; the EC50, cAMP, Gcg Receptor Assay; sample C6.5MT-4 C.-4 wk stood at 54 nM; the EC50, cAMP, Gcg Receptor Assay; sample C6.5MT-40 C.-4 wk is over 100 nM. In assay [3], this molecule displayed an EC50, cAMP, GIP Receptor Assay; sample C6.5-4 C.-4 wk of over 100 nM; an EC50, cAMP, GIP Receptor Assay; sample C6.5-40 C.-4 wk of over 100 nM; an EC50, cAMP, GIP Receptor Assay; sample C6.5MT-4 C.-4 wk of over 100 nM; an EC50, cAMP, GIP Receptor Assay; sample C6.5MT-40 C.-4 wk of over 100 nM.

B1: Example 1 (peptide)
peptide: YXQGTFTSDYSKYLDXKKAXEFVEWLLETGPSSGAPPPS
modifications: Aib at positions 2 and 16; K20 epsilon-amino group conjugated with ([2-(2-Amino-ethoxy)-ethoxy]-acetyl)2-(γGlu)2-CO-(CH2)16-CO2H; C-terminal primary amide
As usually defined, the Ki is a measure of affinity in units of concentration, obtained from inhibition or displacement. Turning to B1, the “EC50, intracellular cAMP (HTRF)” value in [4] worked out at 73.9 nM. In addition, the “EC50, intracellular cAMP (HTRF)” value in assay [5] was over 500 nM. Besides, the “EC50, intracellular cAMP (HTRF)” value in [6] was determined as 0.00436 nM. Moreover, in assay [7], the “EC50, cAMP, GLP-1 Receptor Assay; sample T7-4 C.-4 wk” value was over 100 nM; the “EC50, cAMP, GLP-1 Receptor Assay; sample T7-40 C.-4 wk” value is 57.5 nM; the “EC50, cAMP, GLP-1 Receptor Assay; sample T7m-4 C.-4 wk” value is 43.8 nM; the “EC50, cAMP, GLP-1 Receptor Assay; sample T7m-40 C.-4 wk” value is 49.7 nM. In addition, in [8], the “EC50, cAMP, GIP Receptor Assay; sample T7-4 C.-4 wk” value was over 100 nM; the “EC50, cAMP, GIP Receptor Assay; sample T7-40 C.-4 wk” value is over 100 nM; the “EC50, cAMP, GIP Receptor Assay; sample T7m-4 C.-4 wk” value is over 100 nM; the “EC50, cAMP, GIP Receptor Assay; sample T7m-40 C.-4 wk” value is over 100 nM. Further, in [9], the “EC50, cAMP, Gcg Receptor Assay; sample T7-4 C.-4 wk” value worked out at 0.0203 nM; the “EC50, cAMP, Gcg Receptor Assay; sample T7-40 C.-4 wk” value is 0.0217 nM; the “EC50, cAMP, Gcg Receptor Assay; sample T7m-4 C.-4 wk” value stood at 0.023 nM; the “EC50, cAMP, Gcg Receptor Assay; sample T7m-40 C.-4 wk” value was 0.0194 nM. Besides, in assay [10], the “EC50, cAMP, GLP-1 Receptor Assay; sample C6.5-4 C.-4 wk” value is 41.6 nM; the “EC50, cAMP, GLP-1 Receptor Assay; sample C6.5-40 C.-4 wk” value was 54.6 nM; the “EC50, cAMP, GLP-1 Receptor Assay; sample C6.5MT-4 C.-4 wk” value amounted to 55.6 nM; the “EC50, cAMP, GLP-1 Receptor Assay; sample C6.5MT-40 C.-4 wk” value stood at 47.9 nM. In assay [11], the “EC50, cAMP, GIP Receptor Assay; sample C6.5-4 C.-4 wk” value is over 100 nM; the “EC50, cAMP, GIP Receptor Assay; sample C6.5-40 C.-4 wk” value is over 100 nM; the “EC50, cAMP, GIP Receptor Assay; sample C6.5MT-4 C.-4 wk” value was over 100 nM; the “EC50, cAMP, GIP Receptor Assay; sample C6.5MT-40 C.-4 wk” value was over 100 nM. Also, in [12], the “EC50, cAMP, Gcg Receptor Assay; sample C6.5-4 C.-4 wk” value came to 0.0178 nM; the “EC50, cAMP, Gcg Receptor Assay; sample C6.5-40 C.-4 wk” value was 0.0243 nM; the “EC50, cAMP, Gcg Receptor Assay; sample C6.5MT-4 C.-4 wk” value stood at 0.0188 nM; the “EC50, cAMP, Gcg Receptor Assay; sample C6.5MT-40 C.-4 wk” value was 0.0146 nM. Besides, the Ki in [13] is 2.04 nM. In [14], this molecule showed a Ki of 1.92 nM. Moreover, the Ki in assay [15] is 9.78 nM.

B2: Example 2 (peptide)
peptide: YXQGTFTSDYSKYLDXKKAXEFVEWLLETGPSSGAPPPS
modifications: Aib at positions 2 and 16; K20 epsilon-amino group conjugated with ([2-(2-Amino-ethoxy)-ethoxy]-acetyl)2-(γGlu)2-CO-(CH2)18-CO2H; C-terminal primary amide
Turning to B2, the “EC50, intracellular cAMP (HTRF)” value in [4] was over 100 nM; in assay [5], over 500 nM; in [6], 0.0112 nM. Besides, the values for the Ki in [13], in assay [14] and in assay [15] were 1.07 nM, 0.991 nM and 5.59 nM, respectively.

(Values after patent US20180104312A1 (Eli Lilly, published 2018).)
